Test: Serum insulin concentration profile in hairless rats after transdermal patch over micropores or subcutaneous dosing
Assay type: in vivo
Description: This example illustrates the ability of the microporation system to mimic the delivery of a subcutaneous infusion of insulin. Hairless rats were purchased and dosed with insulin in accordance with the terms set forth below. The insulin concentration within the serum of the rats was then monitored at given time intervals to provide a blood serum insulin concentration profile.
Three hairless rats were given a 1 U/kg dose of insulin by way of subcutaneous administration. The concentration of insulin in the rats' blood serum was monitored. The average insulin blood serum concentration for the three rats was determined.
Five hairless rats were purchased from Charles River. Jugular vein cannulation was performed the day before the experiment to allow the animals recovering from the surgery.
The experiment was conducted as follows. The rats were anesthetized immediately before the skin treatment, which consisted of cleaning the abdomen side of the rat skin with an alcohol swab. The abdomen was allowed to air dry.
After the abdomen dried, the microporation system was placed longitudinally, and the bottom corners marked, on the cleaned skin site. The cleaned skin site was then microporated using the microporation system. Following microporation, the microporation system was removed and a liquid reservoir patch was placed on the microporated area. The patch was then filled with a 50 IU/ml dose of insulin and a time-zero sample was immediately taken. The remaining samples were taken according to the preset schedule.
After the sample at the 4th hour was taken, the rats were anesthetized to retrieve the donor solution from the liquid reservoir patch. Blood sampling continued until the 8th hour.
Afterward, the test was conducted again, however the patch applied was 2 cm^2 in area. Lastly, the test was performed for a third time, with the patch having a size of 3 cm^2.
Three hairless rats were prepared and tested in accordance with the procedure set forth in Test 1 above. However, for this test, a second generation planar microporation system was used to create the micropores in the abdomen of each rat. In addition, the transdermal patch contained a 50 IU/ml dose of insulin when applied to the microporated area of the skin of each rat.
This test was designed to determine any differences in the types of transdermal patches used to deliver insulin through the micropores. Five hairless rats were prepared and tested in accordance with the procedure set forth in Test 1 above. Following microporation of each rat, an early prototype liquid reservoir patch was applied to two of the rats, while a second generation transdermal patch was used to deliver insulin in the remaining three rats. Each patch contained a 50 IU/ml dose of insulin when applied to the microporated area of the skin of each rat.
A number of rats were prepared in accordance with the procedure set forth in Test 1 above. For those rats that had delivery openings formed on their abdomen, the delivery openings were formed using an early prototype microporation system. Insulin was delivered to the rats using a second generation delivery patch containing the desired concentration of insulin.
The delivery patch was applied to the rats' abdomen without microporation. The rats in this control group were given a […] concentration dose of insulin.
For the other rats in this test, the delivery patch contained insulin in concentrations of 10 IU/ml (6 rats), 25 IU/ml (6 rats), […] or 100 IU/ml (6 rats). The insulin serum concentration was monitored in each of the rats at various intervals of time. The average concentration of the rats for that particular insulin concentration (and whether delivery openings were formed or not) was determined and an insulin serum concentration profile was developed.

With insulin the “average insulin serum concentration, transdermal through micropores versus subcutaneous” value (50 IU/ml patch for 4 hours (5 rats) vs 1 U/kg subcutaneous (3 rats), FIG. 5) was “higher average concentration”, the “duration of higher average insulin serum concentration, transdermal versus subcutaneous” value (50 IU/ml patch for 4 hours vs 1 U/kg subcutaneous, FIG. 5) was “longer duration” and the “insulin serum concentration, planar array microporation system versus step and repeat microporation system” value (50 IU/ml patch for 4 hours, FIG. 7) was “slightly lower”. For the same substance, the “average insulin serum concentration, change with patch size 1 cm^2 to 2 cm^2” value (50 IU/ml patch, 4 rats, FIG. 6) was “roughly doubled”, the “average insulin serum concentration, change with patch size 2 cm^2 to 3 cm^2” value (50 IU/ml patch, 4 rats, FIG. 6) was “roughly doubled” and the “average insulin concentration, early prototype liquid reservoir patch versus second generation transdermal patch” value (50 IU/ml patch, FIG. 8) was “very similar”. For the same substance, the “average insulin serum concentration, 100 IU/ml dose in comparison to other doses” value (microporated, 100 IU/ml patch, 6 rats, FIG. 9) was “very high”, the “average insulin serum concentration, 50 IU/ml dose versus 25 IU/ml dose” value (microporated, FIG. 9) was “not much difference” and the “average insulin serum concentration, rats without delivery openings” value (patch on non-microporated abdomen, 3 rats, FIG. 9) was “very low”.

Reference: patent US8016811B2, “Method for transdermal delivery of permeant substances” (priority 2003, dated 2011)
